The text below walks through data of the supplement of paper PMC10567573.

The data set in a line: protein stability index of a GFP-peptide fusion (GPS, HEK-293T) (PSI 1-6); higher = more stable.
Where [1] appears, read: treatment: DMSO, c terminus: a fixed tail appended.
The mark [2] stands for this setting: treatment: MLN4924 1 uM, 8 h, c terminus: a fixed tail appended.

± gives the standard deviation.
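Also: 24-mer peptide tiles fused after GFP, lentivirally expressed, FACS-sorted into six equal bins by GFP/DsRed ratio, decoded by Illumina sequencing, PSI is the read-weighted mean bin number.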

Consider RIGEATKPDGTVEQIGHILVSWLP [NET1], for which the protein stability index runs as follows: under setting [1], 2.68 ± 0.29; under setting [2], 2.56 ± 0.24.
With RKLNSRLFVIRGQPADVFPRLFKE [CRY1], the protein stability index runs as follows: under setting [1], 2.27 ± 0.38; under setting [2], 2.09 ± 0.39.
For RKLSLKGHNDWVMDVAISNNKKWI [WDR88], the protein stability index by setting is: under setting [1], 2.69 ± 0.42; under setting [2], 2.39 ± 0.29.
Consider RKPKVIECSYTSADGQRHHSKLLV [DHCR7], for which the protein stability index by setting is: under setting [1], 2.72 ± 0.13; under setting [2], 2.93 ± 0.28.
Turning to RKVAGMAKPNMIISVNGDVITIKS [FABP4], the protein stability index reads like this: under setting [1], 2.37 ± 0.66; under setting [2], 2.43 ± 0.26.
The like results for RLCFFPFVENGHSESSGQTHLEGD [CFHR2] were, in that order, 4.01 ± 0.099 and 4.37 ± 0.15.
Regarding RLEQEIATYRSLLEGQDAKMIGFP [KRT13], the protein stability index is 3.06 ± 0.1 under setting [1] and 3.36 ± 0.34 under setting [2].
As to RLFQVVGKTDDTLALLNLACMMTI [TMEM175], the protein stability index reads like this: under setting [1], 2.92 ± 0.53; under setting [2], 2.65 ± 0.56.
In turn, RLIATKNPEEIRGGGLLKYSNLLV [TENT5C] returned a protein stability index under setting [1] of 2.44 ± 0.35 and a protein stability index under setting [2] of 2.26 ± 0.26.
Turning to RLRPLTLSTPKPLVDFCNKPILLH [GMPPB], the protein stability index stood at 2.31 ± 0.14 under setting [1] and 2.46 ± 0.51 under setting [2].
RMQVLKRQVQSLMVHQRKLEAELL [SMARCE1]: the protein stability index under setting [1] was found to be 2.17 ± 0.27 and the protein stability index under setting [2] amounted to 2.6 ± 0.45.
As for RQEAIYEMSRGEQDLIEDLKLARK [NET1], the protein stability index by setting is: under setting [1], 4.69 ± 0.18; under setting [2], 4.79 ± 0.099.
The like results for RQTTGLMEYCLEVIKENDPSGFLQ [TRIM9] were, in that order, 3.11 ± 0.24 and 3.05 ± 0.34.
As to RQWPTKSQTDRGASAGKRRCFWLG [SDE2], the protein stability index under setting [1] is 2.9 ± 0.24 and the protein stability index under setting [2] came to 3.19 ± 0.58.
Taken in the same sequence, the figures for RRDPSIPIYGLRQSILLNTRLQDC [C22orf31] were 2.74 ± 0.55 and 2.37 ± 0.31.
Regarding RRIHSLPQKLLGCSPALKRSHSDS [CDC25A], the protein stability index by setting is: under setting [1], 4.89 ± 0.29; under setting [2], 5.21 ± 0.078.
The like results for RSEQSVKLRRQVIQVVLNGMESYQ [ZER1] were, in that order, 2.41 ± 0.13 and 2.32 ± 0.18.
The like results for RSQSSIVPEEEQAANKGEEKKDDE [SMARCE1] were, in that order, 5.63 ± 0.25 and 5.68 ± 0.14.
Turning to RSRDSNSGPEEPLLEEEEKQWGPL [RTN2], the protein stability index is, setting by setting: under setting [1], 5.05 ± 0.53; under setting [2], 5.45 ± 0.53.
Regarding RTLPNASTVDNIRSIFGNAVSREL [MLH1], the protein stability index stood at 3.55 ± 0.12 under setting [1] and 3.54 ± 0.17 under setting [2].
The like results for RVAIAHYQDDPDLRFLLDQVQLGL [TSPAN10] were, in that order, 2.28 ± 0.25 and 2.36 ± 0.25.
For RVEESGSKKEGKRQGPKEPPRKSG [PBXIP1], the protein stability index stood at 5.33 ± 0.17 under setting [1] and 5.33 ± 0.48 under setting [2].
In the case of RVKLTKRSGHTQTDYINASFMDGY [PTPN9], the protein stability index is, setting by setting: under setting [1], 2.75 ± 0.14; under setting [2], 2.87 ± 0.27.
For RVTTEQYQKAAEEVEAKFKRYESH [CHCHD3], the protein stability index is 4.66 ± 0.14 under setting [1] and 4.7 ± 0.12 under setting [2].
The sequence RYCDSILREMLSKKHAAYAWPFYK [BRD3] displayed a protein stability index under setting [1] of 2.07 ± 0.48 and a protein stability index under setting [2] of 2.02 ± 0.26.
Take RYVLKAGQTVTIWAANAGVTASPP [LMNB1]: the protein stability index by setting is: under setting [1], 3.62 ± 0.27; under setting [2], 3.49 ± 0.24.
As to SAIYKWITDNFCYFRHADPTWQNS [FOXJ1], the protein stability index under setting [2] was found to be 2.57 ± 0.4.
The sequence SAPLQGAVPPTSSVPPVAGAPSVG [SNAP91] gave a protein stability index under setting [1] of 4.91 ± 0.19 and a protein stability index under setting [2] of 4.99 ± 0.081.
For SARYLEAALRLHRLLRDSEAFCHA [P3H4], the protein stability index under setting [1] turned out to be 2.51 ± 0.23 and the protein stability index under setting [2] turned out to be 2.07 ± 0.2.
The like results for SATLVGFTVGSVLGQILVSVAGWS [SLC19A2] were, in that order, 3.13 ± 0.21 and 3.23 ± 0.89.
Regarding SAVVGDVLVLTKPLGTQVAVNAHQ [SEPHS2], the protein stability index was 2.95 ± 0.3 under setting [1] and 3.1 ± 0.31 under setting [2].
SAWKTVACGGTRDQLFMQEKARQL [MYBL2] had a protein stability index under setting [1] of 3.21 ± 0.33 and a protein stability index under setting [2] of 3.33 ± 0.28.
Taken in the same sequence, the figures for SDGTDEPESKEPVEKEEEPDPEPP [SMG5] were 5.67 ± 0.23 and 5.62 ± 0.18.
For the sequence SDPQTVAGAFGYFQQDTKGLVDFR [LPCAT4], the protein stability index came out at 3.68 ± 0.41 under setting [1] and 3.71 ± 0.29 under setting [2].
In the case of SDSGDGVYAGRPLSVIQMVAFLEQ [FBXO34], the protein stability index came to 2.92 ± 0.15 under setting [1] and 3.02 ± 0.34 under setting [2].
For SDVVPEKERPLVIGHFNTASGVGF [MFSD9], the protein stability index amounted to 3.49 ± 0.26 under setting [1] and 3.52 ± 0.25 under setting [2].
Take SEDNTSFDRKKKSISLMYGGSKRK [SLA]: the protein stability index came to 4.66 ± 0.26 under setting [1] and 4.91 ± 0.27 under setting [2].
The like results for SEDTLTIHGLPTEGYQALYHAVVE [C22orf31] were, in that order, 3.19 ± 0.27 and 3.24 ± 0.36.
Turning to SETGSTGALETRSLKDHKVSFLRS [C2CD2L], the protein stability index is 4.48 ± 0.29 under setting [1] and 4.46 ± 0.19 under setting [2].
SFMLQDRAKGLLGTTVTFDDLMGI [FEM1C]: the protein stability index reads like this: under setting [1], 2.49 ± 0.24; under setting [2], 2.66 ± 0.14.
In the case of SFNHNAHLTVHKRIHTGERPYMCK [ZNF8], the protein stability index was found to be 2.76 ± 0.2 under setting [1] and 2.9 ± 0.22 under setting [2].
With SFPEPEAAQPMTKKRKVDGLSTEA [PRAME], the protein stability index reads like this: under setting [1], 5.19 ± 0.3; under setting [2], 5.16 ± 0.14.
SFPLEWAPQNLTRWTFEKACHPFL [TOR1AIP2]: the protein stability index runs as follows: under setting [1], 2.12 ± 0.093; under setting [2], 2.31 ± 0.12.
As for SFTLADVSLAVTLHRLKFLGFARR [GDAP1], the protein stability index is, setting by setting: under setting [1], 2.5 ± 0.64; under setting [2], 2.33 ± 0.33.
Turning to SFVESANSEVYLPNINKISMQAVL [RHOBTB1], the protein stability index runs as follows: under setting [1], 2.43 ± 0.21; under setting [2], 2.2 ± 0.34.
In the case of SGDRDENSFSLNSSISSSARRTTR [MAP2], the protein stability index came to 5.05 ± 0.28 under setting [1] and 4.97 ± 0.32 under setting [2].
Taken in the same sequence, the figures for SGHKLYIFLFQDILVLTRPVTRNE [NET1] were 2.6 ± 0.56 and 2.41 ± 0.48.
With SGLVRRLWRSRVVPDREEGGSGGG [SMAD6], the protein stability index under setting [1] was 3.91 ± 0.6 and the protein stability index under setting [2] was found to be 4.33 ± 0.36.
In the case of SGMGGRAPVSRGRDSYGGPPRREP [RBMX], the protein stability index amounted to 4.45 ± 0.28 under setting [1] and 4.61 ± 0.29 under setting [2].
Consider SGRLMGSPPVPGPSAALTTMQLFS [FBXO28], for which the protein stability index under setting [1] worked out at 2.71 ± 0.25 and the protein stability index under setting [2] was 2.63 ± 0.21.
On to SGSSYRDALQRYGTSHGAPPARGP [RBMY1A1], for which the protein stability index amounted to 4.1 ± 0.22 under setting [1] and 4.14 ± 0.25 under setting [2].
In the case of SIKKKFLKRKGKTDSPWIKPARKR [EHMT1], the protein stability index was found to be 3.66 ± 0.082 under setting [1] and 3.71 ± 0.17 under setting [2].
Regarding SIKPEASQMPPPAGGTSDDPEPSG [SCNN1D], the protein stability index is, setting by setting: under setting [1], 5.43 ± 0.15; under setting [2], 5.57 ± 0.28.
For SIPKLKLTRPVPAGADLPPPKIRL [PWWP2B], the protein stability index runs as follows: under setting [1], 3.45 ± 0.23; under setting [2], 3.63 ± 0.35.
As for SIVSGGYGGSGDGLIPTGSGRHPS [ARFIP2], the protein stability index was determined as 3.96 ± 0.19 under setting [1] and 4.34 ± 0.42 under setting [2].
Turning to SIYPMEVLKTRMALRKTGQYSGML [SLC25A25], the protein stability index worked out at 2.48 ± 0.36 under setting [1] and 2.6 ± 0.52 under setting [2].
Turning to SKAHLEKVRSYVKRALAEGAQIWC [ALDH8A1], the protein stability index under setting [1] stood at 3.23 ± 0.73 and the protein stability index under setting [2] came out at 3.19 ± 0.56.
With SKSKQPAGHRRPAGGIRESKESSK [C22orf31], the protein stability index was found to be 5.35 ± 0.055 under setting [1] and 4.91 ± 0.53 under setting [2].
Taken in the same sequence, the figures for SKTFLCIGSSVMAASLVTMGIVNL [SLC2A12] were 3.19 ± 0.72 and 3.3 ± 0.54.
With SKTNLIVNYLPQNMTQDEFKSLFG [ELAVL3], the protein stability index came to 2.63 ± 0.28 under setting [1] and 2.79 ± 0.22 under setting [2].
In the case of SLAQGPDAATTDELSSLGSDSEAN [TBC1D10A], the protein stability index by setting is: under setting [1], 5.56 ± 0.19; under setting [2], 5.5 ± 0.18.
As for SLGYVRSQFLKLKTSVEKANAQIQ [CD207], the protein stability index was 2.63 ± 0.53 under setting [1] and 2.81 ± 0.27 under setting [2].
On to SLKDGLSDSDSELSSSEGLEPGSA [PSD2], for which the protein stability index is, setting by setting: under setting [1], 5.47 ± 0.28; under setting [2], 5.6 ± 0.13.
Consider SLLNFLPEGVNKLKISPVTLKEAY [TENT5C], for which the protein stability index by setting is: under setting [1], 2.27 ± 0.23; under setting [2], 2.41 ± 0.12.
Regarding SLLPAQVAACAQTVVSLAAAGQPT [CEBPD], the protein stability index by setting is: under setting [1], 3.24 ± 0.9; under setting [2], 2.9 ± 0.37.
Regarding SLLQSAWMEILILGVVYRSLSFED [ESRRG], the protein stability index reads like this: under setting [1], 3.09 ± 0.26; under setting [2], 3.07 ± 0.22.
As for SLRLCDMRAAALCDKHSKLFEEPE [PPP2R2C], the protein stability index is, setting by setting: under setting [1], 4.19 ± 0.26; under setting [2], 4.08 ± 0.26.
The like results for SLSAGEKPGFLAPRDLPKHTPLIS [RASAL3] were, in that order, 3.56 ± 0.23 and 3.65 ± 0.32.
Consider SLSHTELEAAEVILEHAHRGEQTT [FCHSD1], for which the protein stability index runs as follows: under setting [1], 5.22 ± 0.26; under setting [2], 5.28 ± 0.11.
The like results for SLTSGACRLDYRRPENRSFYLALY [TCF25] were, in that order, 2.41 ± 0.66 and 2.57 ± 0.88.
SMLLQRFSVAPHETQTQRGGEFQC [RNF180]: the protein stability index is, setting by setting: under setting [1], 3.05 ± 0.097; under setting [2], 3.31 ± 0.26.
For SNFHINVEESVDGQVVSSHKREI [KRT15], the protein stability index stood at 2.91 ± 1 (treatment: DMSO, c terminus: native) and 3.83 ± 1 (treatment: MLN4924 1 uM, 8 h, c terminus: native).
